For data set [1], the target named is N-CEACAMFc (N-domain of murine CEACAM1^a linked to a carboxyl-terminal IgG1 Fc) (murine). Put plainly: pull-down.
Data set [2] shares this target. Put plainly: pull-down. This is another data set of the same source.
Target sequence in this assay (P31809 35-428): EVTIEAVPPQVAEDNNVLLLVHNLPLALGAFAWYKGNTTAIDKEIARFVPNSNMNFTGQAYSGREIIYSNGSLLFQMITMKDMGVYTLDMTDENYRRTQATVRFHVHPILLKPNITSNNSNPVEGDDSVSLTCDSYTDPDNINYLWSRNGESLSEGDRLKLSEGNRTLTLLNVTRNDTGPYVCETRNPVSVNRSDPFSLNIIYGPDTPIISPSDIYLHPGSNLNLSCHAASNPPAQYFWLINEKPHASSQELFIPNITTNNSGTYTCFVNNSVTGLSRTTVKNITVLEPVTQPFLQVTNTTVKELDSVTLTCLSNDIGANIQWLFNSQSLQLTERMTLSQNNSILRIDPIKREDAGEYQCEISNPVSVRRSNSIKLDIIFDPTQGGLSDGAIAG
Data set [3] concerns the molecule itself. The data set can be described thus: velocity sucrose gradient ultracentrifugation.

As usually defined, the stoichiometry N is a count of units in the complex or per binding partner.

Molecule “Hetero-oligomer of S_(T212S/Y214S/Y216S) with wild-type S1_(330) (from UniProt P11225 14-1235; P11225 14-330) (complex)” showed a 35S in the boxed band precipitated with N-CEACAMFc in data set [1] of 4330 cpm.

In data set [1], “S_(T212S/Y214S/Y216S) (full-length S of JHM strain with the indicated substitutions) (from UniProt P11225 14-1235) (natural protein)” showed a 35S in the boxed band precipitated with N-CEACAMFc of 2140 cpm.

B1: S1 co-produced with N-CEACAMFc in 293 cells (domain or fragment)
chain: GYIGDFRCIQTVNYNGNNASAPSISTEAVDVSKGRGTYYVLDRVYLNATLLLTGYYPVDGSNYRNLALTGTNTLSLTWFKPPFLSEFNDGIFAKVQNLKTNTPTGATSYFPTIVIGSLFGNTSYTVVLEPYNNIIMASVCTYTICQLPYTPCKPNTNGNRVIGFWHTDVKPPICLLKRNFTFNVNAPWLYFHFYQQGGTFYAYYADKPSATTFLFSVYIGDILTQYFVLPFICTPTAGSTLAPLYWVTPLLKRQYLFNFNEKGVITSAVDCASSYISEIKCKTQSLLPSTGVYDLSGYTVQPVGVVYRRVPNLPDCKIEEWLTAKSVPSPLNWERRTFQNCNFNLSSLLRYVQAESLSCNNIDASKVYGMCFGSVSVDKFAIPRSRQIDLQIGNSGFLQTANYKIDTAATSCQLYYSLPKNNVTINNYNPSSWNRRYGFKVNDRCQIFANILLNGINSGTTCSTDLQLPNTEVATGVCVRYDLYGITGQGVFKEVKADYYNSWQALLYDVNGNLNGFRDLTTNKTYTIRSCYSGRVSAAYHKEAPEPALLYRNINCSYVFTNNISREENPLNYFDSYLGCVVNADNRTDEALPNCNLRMGAGLCVDYSKSRRARRSVSTGYRLTTFEPYMPMLVNDSVQSVGGLYEMQIPTNFTIGHHEEFIQIRAPKVTIDCAAFVCGDNAACRQQLVEYGSFCDNVNAILNEVNNLLDNMQLQVASALMQGVTISSRLPDGISGPIDDINFSPLLGCIGSTCAE
For the molecule B1, the ^35S-labeled S1:^35S-labeled N-CEACAMFc ratio in data set [2] amounted to 3.4.

B2: S1 (769-residue S1 fragment of the MHV strain JHM spike protein, produced independently from cDNA) (domain or fragment)
chain: GYIGDFRCIQTVNYNGNNASAPSISTEAVDVSKGLGTYYVLDRVYLNATLLLTGYYPVDGSNYRNLALTGTNTLSLTWFKPPFLSEFNDGIFAKVQNLKTNTPTGATSYFPTIVIGSLFGNTSYTVVLEPYNNIIMASVCTYTICQLPYTPCKPNTNGNRVIGFWHTDVKPPICLLKRNFTFNVNAPWLYFHFYQQGGTFYAYYADKPSATTFLFSVYIGDILTQYFVLPFICTPTAGSTLLPLYWVTPLLKRQYLFNFNEKGVITSAVDCASSYISEIKCKTQSLLPSTGVYDLSGYTVQPVGVVYRRVPNLPDCKIEEWLTAKSVPSPLNWERRTFQNCNFNLSSLLRYVQAESLSCNNIDASKVYGMCFGSVSVDKFAIPRSRQIDLQIGNSGFLQTANYKIDTAATSCQLYYSLPKNNVTINNYNPSSWNRRYGFNDAGVFGKSKHDVAYAQQCFTVRPSYCPCAQPDIVSACTSQTKPMSAYCPTGTIHRECSLWNGPHLRSARVGSGTYTCECTCKPNPFDTYDLRCGQIKTIVNVGDHCEGLGVLEDKCGNSDPHKGCSCANDSFIGWSHDTCLVNDRCQIFANILLNGINSGTTCSTDLQLPNTEVATGVCVRYDLYGITGQGVFKEVKADYYNSWQALLYDVNGNLNGFRDLTTNKTYTIRSCYSGRVSAAYHKEAPEPALLYRNINCSYVFTNNISREENPLNYFDSYLGCVVNADNRTDEALPNCDLRMGAGLCVDYSKSRRARR
Consider B2, for which the “stoichiometry N” value in data set [3] was 2.

Source of the values: publication PMC8060896 (The Journal of Biological Chemistry, 2002).
